Positions of bridges follow the written chain, without caps; N, C: chain ends. No end group written: not given here.
B1: cyclic peptide CLRLIVMCG (peptide)
peptide: CLRLIVMCG
modifications: bridge 1-8 (inferred)
B2: cyclic peptide CLRLNVFCG (peptide)
peptide: CLRLNVFCG
modifications: bridge 1-8 (inferred)
B3: peptide 32814 (peptide)
peptide: RKLDTFFVKLSLFTERRR
notes: K1R and two added C-terminal R against P28R
B4: peptide 30680 (peptide)
peptide: KKLDTVMVKLQLMTER
notes: Four changes against P28R
B5: P28 core (peptide)
peptide: FFVKLS
notes: also called peptide 32230; FFVKLS
B6: lead cyclic peptide CLALNVMCG (peptide)
peptide: CLALNVMCG
modifications: bridge 1-8 (inferred)
notes: also called lead looped peptide
B7: cyclic peptide CLALNVMCG (peptide)
peptide: CLALNVMCG
modifications: bridge 1-8 (inferred); not fully specified
notes: also called lead cyclic peptide; lead looped peptide
B8: cyclic peptide CLRLIVMCG (peptide)
peptide: CLRLIVMCG
modifications: bridge 1-8 (inferred); not fully specified
B9: cyclic peptide CLRLNVFCG (peptide)
peptide: CLRLNVFCG
modifications: bridge 1-8 (inferred); not fully specified
B10: P3028 (peptide)
peptide: VFDEFKPLVEEPQNLIK
B11: Asp-N-generated albumin fragment 37-79 (peptide)
peptide: LGEENFKALVLIAFAQYLQQCPFEDHVKLVNEVTEFAKTCVA
B12: Asp-N-generated albumin fragment 495-517 (peptide)
peptide: DRVTKCCTESLVNRRPCFSALEV
B13: Asp-N-generated albumin fragment 495-535 (peptide)
peptide: RVTKCCTESLVNRRPCFSALEVDETYVPKEFNAETFTFHA
B14: Asp-N-generated albumin fragment 96-112 (peptide)
peptide: DKLCTVATLRETYGEM
B15: Asp-N-generated albumin fragment 96-130 (peptide)
peptide: KLCTVATLRETYGEMADCCAKQEPERNECFLQHK
B16: Asp-N-generated albumin fragment 293-319 (peptide)
peptide: DSISSKLKECCEKPLLEKSHCIAEVEN
B17: Asp-N-generated albumin fragment 518-535 (peptide)
peptide: DETYVPKEFNAETFTHA
B18: Asp-N-generated albumin fragment 475-517 (peptide)
peptide: YLSVVLNQLCVLHEKTPVSDRVTKCCCTESLVNRRPFSALEV
B19: Asp-N-generated albumin fragment 283-319 (peptide)
peptide: LAKYICENQDSISSKLKECCEKPLLEKHCIAEVEN
B20: Asp-N-generated albumin fragment 348-388 (peptide)
peptide: VFLGMFLYEYARRHPDYSVVLLLRLAKTYETTLEKCCAAA
B21: Asp-N-generated albumin fragment 586-609 (peptide)
peptide: DDKETCFAEEGKKLVAASQAALGL
B22: Asp-N-generated albumin fragment 364-398 (peptide)
peptide: YSVVLLLRLAKTYETTLEKCCAAADPHECYAKVF
B23: Asp-N-generated albumin fragment 62-79 (peptide)
peptide: DHVKLVNEVTEFAKTCVA
B24: Asp-N-generated albumin fragment 536-572 (peptide)
peptide: ICTLSEKERQIKKQTALVELVKHKPKATKEQLKAVM

Biological target: T1, His-tagged P3028 (human, also: His-tag, terminus and sequence not given here)
T1 construct: used in solution in the PEPSCAN (rampo) ELISA; also called PGE73; His-tag-P3028; not shown: His tag
T1 peptide: VFDEFKPLVEEPQNLIK
Assay: positional scan, ELISA on chip with His-tag labeled P3028

| Binder | binding result |
| --- | --- |
| B1 | binds |
| B2 | binds |

Biological target: T2, His-tagged P3028 peptide (PGE73) (human)
T2 construct: also called His-tag-P3028; not shown: His-tag
T2 peptide: VFDEFKPLVEEPQNLIK
Assay: positional scan, PEPSCAN ELISA on chip

| Binder | binding result |
| --- | --- |
| B3 | binds |
| B4 | binds |

Biological target: T1, His-tagged P3028
Assay: positional scan / PEPSCAN ELISA

| Binder | binding result |
| --- | --- |
| B5 | binds |

Biological target: T1, His-tagged P3028
Assay: ELISA on chip with His-tag labeled P3028
Procedure: (§1) Positional scans were performed in each position of the lead cyclic peptide was replaced with each of the other 19 L-amino acids.

| Binder | binding result |
| --- | --- |
| B6 | binds |

Biological target: T3, His-tagged P3028 (human, not fully specified)
T3 construct: the tag is put first after 'PGE73=His-tag-P3028'; also called PGE73; not shown: His-tag
T3 peptide: {His‑tag}-VFDEFKPLVEEPQNLIK
Assay: chip ELISA with His-tag labelled P3028

| Binder | binding result |
| --- | --- |
| B7 | binds |

Biological target: T3, His-tagged P3028
Assay: chip ELISA with His-tag labelled P3028, positional scan
Procedure: as §1

| Binder | binding result |
| --- | --- |
| B8 | binds |
| B9 | binds |

Biological target: T4, fusion protein of CD25 and the Fc-part of IgG (human, UniProt P01589 22-240, limits assumed)
T4 construct: also called rhuIL-2R alpha; rhuIL-2R
T4 sequence: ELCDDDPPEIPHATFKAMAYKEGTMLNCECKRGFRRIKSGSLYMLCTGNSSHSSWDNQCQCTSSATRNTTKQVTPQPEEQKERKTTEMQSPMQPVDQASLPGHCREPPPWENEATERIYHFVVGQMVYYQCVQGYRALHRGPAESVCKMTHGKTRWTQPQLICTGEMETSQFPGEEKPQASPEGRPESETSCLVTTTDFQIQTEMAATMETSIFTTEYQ
Assay: ELISA, CD25-Fc on protein G coated plates, biotinylated IL-2 with or without P3028

| Binder | binding result |
| --- | --- |
| B10 | binds |

Biological target: Artificial Cell Surface (ACS): biotinylated cell surface proteins of PBMCs bound to streptavidin columns
Assay: Asp-N-digested dHSA adsorbed on ACS column, MALDI-TOF ms

| Binder | Percent Absorbed |
| --- | --- |
| B11 | 100% |
| B12 | 87% |
| B13 | 100% |
| B14 | 65% |
| B15 | 100% |
| B16 | 65% |
| B17 | 86% |
| B18 | 37% |
| B19 | 100% |
| B20 | 100% |
| B21 | 100% |
| B22 | 100% |
| B23 | 100% |
| B24 | 100% |

Source: patent US20170298096A1 (CANIMGUIDE THERAPEUTICS, published 2017)
